Positions count from the first letter of the chain named.
How the values were obtained:
[1] = target: T1, MUC1 100mer vaccine peptide (Homo sapiens, UniProt P15941)
Target sequence in this assay (P15941 136-235): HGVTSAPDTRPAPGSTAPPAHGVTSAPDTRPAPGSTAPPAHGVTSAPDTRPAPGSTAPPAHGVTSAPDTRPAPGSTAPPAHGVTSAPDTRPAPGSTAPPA

MUC1 VNTR 25mer peptide = target: T2, MUC1 VNTR 25mer peptide (Homo sapiens); assay: SPR; Biacore T200; whole IgG captured on a CM5 chip coated with anti-human IgG capture antibody; serially diluted 25mer peptide as analyte; 1:1 model; conditions: both partners purified
T2 construct: MUC1 VNTR, human; one repeat plus 5 amino acids from the next repeat; also called 25mer MUC1 peptide

[2] = target: T1, MUC1 100mer vaccine peptide; assay: SPR; Biacore T200; Fab captured at low density (RU < 50) on a CM5 chip coated with anti-human Fab capture kit; serially diluted 100mer peptide as analyte; kinetic analysis, 1:1 model; conditions: both partners purified
[3] = target: T1, MUC1 100mer vaccine peptide; assay: SPR; Biacore T200; Fab captured at low density (RU < 50) on a CM5 chip coated with anti-human Fab capture kit; serially diluted 100mer peptide as analyte; 'Steady State' in Table 1 in place of rate constants; conditions: both partners purified

T2 sequence (peptide, as listed by the source): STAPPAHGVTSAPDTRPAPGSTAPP

B1: H16K6 (antibody, V domains shown)
VH: QVQLVESGGGLVKPGGSLRLSCAASGFTFSDYYMSWIRQAPGKGLEWVSYISSSGTTKYYADSVKGRFTISRDNAKNSLYLQMNSLRAEDTAVYYCVRENLGYCSGGSCFYYYYMDVWGKGTTVTVSS
VL: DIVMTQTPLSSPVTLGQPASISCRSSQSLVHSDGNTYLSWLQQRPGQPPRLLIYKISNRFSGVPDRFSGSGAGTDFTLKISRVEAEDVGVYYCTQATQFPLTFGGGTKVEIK
B1: binds [1].

B2: H19K15 whole IgG (antibody, V domains shown)
VH: B1 VH with T28I, N100D, L101I
VL: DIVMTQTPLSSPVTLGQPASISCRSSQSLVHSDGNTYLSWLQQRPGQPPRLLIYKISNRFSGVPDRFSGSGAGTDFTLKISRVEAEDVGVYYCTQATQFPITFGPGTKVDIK
B2 was tested, and the kon (MUC1 VNTR 25mer peptide) was 8600 M⁻¹ s⁻¹.

B3: H14K6 Fab (Fab, V domains shown)
VH: B1 VH with T56S, K58I, V97A, N100R, L101I, F110Y
VL: not shown
In the case of B3, the Kd [2] is reported as 0.13 nM, the koff [2] is reported as 0.000346 s⁻¹ and the kon [2] is reported as 2.67e+06 M⁻¹ s⁻¹.

B4: H19K15 Fab (Fab, V domains shown)
VH: B1 VH with T28I, N100D, L101I
VL: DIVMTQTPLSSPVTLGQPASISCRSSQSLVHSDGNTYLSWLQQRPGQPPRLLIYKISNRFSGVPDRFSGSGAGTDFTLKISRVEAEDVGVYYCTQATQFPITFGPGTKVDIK
With B4 the Kd [2] was 0.555 nM, the koff [2] was 0.000453 s⁻¹ and the kon [2] was 817000 M⁻¹ s⁻¹.

B5: H14K6 whole IgG (antibody, V domains shown)
VH: B1 VH with T56S, K58I, V97A, N100R, L101I, F110Y
VL: not shown
Work on B5 yielded a Kd (MUC1 VNTR 25mer peptide) of 27.2 nM, a koff (MUC1 VNTR 25mer peptide) of 0.00123 s⁻¹ and a kon (MUC1 VNTR 25mer peptide) of 45300 M⁻¹ s⁻¹.

B6: H4K10 Fab (Fab, V domains shown)
VH: QLQLQESGPGLVKPSETLSLTCTVSGGSISSSRYYWGWIRQPPGKGLEWIGSIYYSGSTYYNPSLKSRVTISVDTSNNQFSLKLTSVTAADTAVYYCARLPESGGYSGWFDPWGQGTLVTVSS
VL: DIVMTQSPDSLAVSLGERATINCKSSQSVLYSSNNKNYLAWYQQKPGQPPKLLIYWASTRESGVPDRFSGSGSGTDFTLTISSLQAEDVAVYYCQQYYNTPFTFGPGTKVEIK
Binder B6 has a Kd [3] of 5310 nM.

B7: H4K11 Fab (Fab, V domains shown)
VH: B6 VH
VL: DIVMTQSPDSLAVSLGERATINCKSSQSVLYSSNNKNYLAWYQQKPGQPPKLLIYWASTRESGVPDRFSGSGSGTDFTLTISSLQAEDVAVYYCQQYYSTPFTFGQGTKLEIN
Binder B7 has a Kd [3] of 15700 nM.
